Laboratory results as given in the supplement of paper PMC6757056.
± gives the standard deviation of the averaged measurements.

B1: library; a variant is named by its letters at N, in order (parent)
chain: GCUGUCACCGGUGUAUUACCCUAGUGGUCGACCGGUCUGAUGAGUCUNNNNNNAGACGAAACAGC

Columns and labels:
hypoxanthine [1] = variants of: B1; test: normalized RNA/DNA level with ligand (relative to sTRSVctl = 100) (log10 (% of sTRSVctl)); ligand: hypoxanthine (xanthine aptamer); higher = less ribozyme self-cleavage, higher mRNA level; settings: ligand concentration (+) RNA-Seq: 5 mM, HEK293T, reporter: mCherry (pCS4076), ligand present: yes
Summary of the method: (§1)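 Library plasmids carrying ribozyme switches linked to mCherry, or to eGFP in some ligand experiments, were transfected into HEK293T at 4 µg per 6-well well, with any ligand added 1 h earlier. Seventy-two hours on, total RNA was extracted with EDTA and reverse-transcribed, amplified, barcoded and sequenced. RNA level was RNA over DNA reads normalized to a spiked-in non-cleaving sequence or to the top sequences, then scaled and log-transformed. The top set was 25 sequences, the transform was ×100 and log10, and sequences needed ≥100 DNA reads.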

hypoxanthine [2] = variants of: B1; test: normalized RNA/DNA level without ligand (relative to sTRSVctl = 100) (log10 (% of sTRSVctl)); ligand: hypoxanthine (xanthine aptamer); higher = less ribozyme self-cleavage, higher mRNA level; settings: HEK293T, reporter: mCherry (pCS4076), ligand present: no
Summary of the method: as §1

Variant | normalized RNA/DNA level with ligand (log10) (hypoxanthine [1]) | normalized RNA/DNA level without ligand (log10) (hypoxanthine [2])
CAUUUU | 1.973 ± 0.0049 | 1.804 ± 0.0085
CAUUUG | 1.98 ± 0.1 | 1.9 ± 0.049
ACCUAU | 1.908 ± 0.015 | 1.792 ± 0.0054
ACCUAA | 1.942 ± 0.012 | 1.87 ± 0.028
CACGGG | 1.84 ± 0.033 | 1.32 ± 0.019
UGCUUU | 1.96 ± 0.064 | 1.94 ± 0.0096
ACCAGC | 1.993 ± 0.0011 | 1.94 ± 0.043
CGUGUU | 1.97 ± 0.054 | 1.89 ± 0.071
UUAGUG | 1.89 ± 0.048 | 1.67 ± 0.043
CUGUUU | 2.02 ± 0.046 | 1.956 ± 0.006
GUCCCC | 1.907 ± 0.017 | 1.825 ± 0.01
AGUUGA | 1.915 ± 0.0047 | 1.63 ± 0.032
GGACAU | 1.886 ± 0.0069 | 1.8 ± 0.038
AAAUGU | 1.865 ± 0.013 | 1.633 ± 0.013
CCGAUC | 1.99 ± 0.037 | 1.87 ± 0.056
CUUUUU | 1.95 ± 0.058 | 1.806 ± 0.012
UCGGAU | 1.86 ± 0.036 | 1.3978 ± 0.00098
CGUAGC | 1.9509 ± 0.00084 | 1.875 ± 0.0047
CUAAAA | 1.88 ± 0.032 | 1.813 ± 0.0042
UUUCAC | 1.9884 ± 0.0013 | 1.91 ± 0.031
UAUAGG | 1.852 ± 0.017 | 1.43 ± 0.02
UGAACC | 1.9742 ± 0.00065 | 1.92 ± 0.057
CAUGGA | 1.92 ± 0.05 | 1.7786 ± 0.00037
CACUCU | 1.963 ± 0.0079 | 1.91 ± 0.026

Variant | normalized RNA/DNA level with ligand (log10) (hypoxanthine [1]) | normalized RNA/DNA level without ligand (log10) (hypoxanthine [2])
GUCUGU | 1.948 ± 0.018 | 1.841 ± 0.015
AGAUAG | 1.82 ± 0.025 | 1.441 ± 0.0087
ACAUUG | 1.91 ± 0.057 | 1.53 ± 0.043
ACAUUU | 1.9 ± 0.04 | 1.796 ± 0.01
GCUAGC | 1.89 ± 0.1 | 1.79 ± 0.079
UUGUGA | 1.985 ± 0.003 | 1.8 ± 0.062
AGUAAC | 1.92 ± 0.035 | 1.798 ± 0.0049
ACACCA | 1.97 ± 0.069 | 1.873 ± 0.0035
ACACCG | 1.9 ± 0.12 | 1.55 ± 0.078
CGACCC | 2.03 ± 0.046 | 1.98 ± 0.086
CAGUAC | 1.898 ± 0.0032 | 1.668 ± 0.015
UCUGAU | 1.94 ± 0.066 | 1.77 ± 0.096
UCUCGC | 1.99 ± 0.022 | 1.757 ± 0.0053
CCCGAU | 1.97 ± 0.033 | 1.8 ± 0.029
AUUUGG | 1.81 ± 0.03 | 1.39 ± 0.12
UCUUCU | 1.979 ± 0.0024 | 1.94 ± 0.099
CCUCUA | 1.98 ± 0.05 | 1.926 ± 0.015
UAGAUU | 1.93 ± 0.027 | 1.866 ± 0.017
UGGCAA | 1.917 ± 0.015 | 1.77 ± 0.03
CCAAGG | 1.83 ± 0.036 | 1.603 ± 0.013
UCGAGG | 1.89 ± 0.036 | 1.59 ± 0.056
CCCUAG | 1.89 ± 0.025 | 1.77 ± 0.12
CCCUAU | 1.971 ± 0.0087 | 1.94 ± 0.025
ACGAAC | 1.89 ± 0.036 | 1.58 ± 0.017

Variant | normalized RNA/DNA level with ligand (log10) (hypoxanthine [1]) | normalized RNA/DNA level without ligand (log10) (hypoxanthine [2])
GACAUU | 1.92 ± 0.057 | 1.856 ± 0.0056
CUUCCU | 1.98 ± 0.038 | 1.96 ± 0.032
CUUGAC | 1.923 ± 0.019 | 1.812 ± 0.0094
AGGGGU | 1.855 ± 0.0023 | 1.61 ± 0.032
GACGUG | 1.83 ± 0.095 | 1.29 ± 0.024
GACGUA | 1.92 ± 0.033 | 1.773 ± 0.0082
GCCGUA | 1.965 ± 0.011 | 1.84 ± 0.061
UAGGCA | 1.905 ± 0.01 | 1.812 ± 0.0025
AAUUAU | 1.92 ± 0.026 | 1.82 ± 0.022
CGUCAC | 1.96 ± 0.044 | 1.92 ± 0.024
GGUCGC | 1.97 ± 0.029 | 1.74 ± 0.04
GGUCGA | 1.954 ± 0.0067 | 1.82 ± 0.067
CCUCGC | 1.92 ± 0.054 | 1.92 ± 0.029
CAUCCG | 1.95 ± 0.026 | 1.91 ± 0.029
CACUUA | 1.87 ± 0.057 | 1.779 ± 0.0095
UCGUUC | 2 ± 0.031 | 1.95 ± 0.086
UCGUUU | 1.96 ± 0.042 | 1.8 ± 0.01
UACAUC | 1.979 ± 0.018 | 2 ± 0.03
GCAACG | 1.9 ± 0.031 | 1.595 ± 0.0074
UCCCUC | 1.98 ± 0.03 | 1.66 ± 0.14
UUGACU | 1.95 ± 0.077 | 1.9 ± 0.042
CGCGAA | 1.87 ± 0.029 | 1.7 ± 0.028
CGAGGA | 1.975 ± 0.0031 | 1.713 ± 0.011
CGGCAA | 1.88 ± 0.024 | 1.529 ± 0.011

Variant | normalized RNA/DNA level with ligand (log10) (hypoxanthine [1]) | normalized RNA/DNA level without ligand (log10) (hypoxanthine [2])
GCAUAC | 1.904 ± 0.014 | 1.62 ± 0.049
CUAACA | 1.88 ± 0.069 | 1.84 ± 0.031
ACAACG | 1.89 ± 0.047 | 1.49 ± 0.021
UUGUUA | 1.983 ± 0.0091 | 2.01 ± 0.043
UCGUCA | 1.986 ± 0.016 | 1.807 ± 0.0051
GCGCUA | 1.88 ± 0.067 | 1.68 ± 0.031
UGCAUA | 1.964 ± 0.0062 | 1.83 ± 0.022
UGCAUG | 1.9 ± 0.028 | 1.75 ± 0.024
CGGUAC | 1.88 ± 0.03 | 1.54 ± 0.084
UCCUAA | 1.956 ± 0.019 | 1.807 ± 0.017
GCACCC | 1.86 ± 0.021 | 1.78 ± 0.035
GGUAUU | 1.973 ± 0.0023 | 1.88 ± 0.085
CUCUUU | 2 ± 0.0092 | 1.912 ± 0.014
CCUCAU | 1.97 ± 0.078 | 1.87 ± 0.02
GUUCUG | 1.89 ± 0.058 | 1.54 ± 0.03
UGUCUC | 1.999 ± 0.0092 | 2.013 ± 0.019
UACAAA | 1.88 ± 0.063 | 1.755 ± 0.0034
UACAAC | 1.97 ± 0.035 | 1.82 ± 0.081
GCUGCA | 1.98 ± 0.021 | 1.83 ± 0.034
UCUACG | 1.9 ± 0.07 | 1.733 ± 0.011
GCGUAA | 1.83 ± 0.035 | 1.49 ± 0.054
CUACGG | 1.93 ± 0.047 | 1.98 ± 0.071
UGGCUC | 2.02 ± 0.051 | 2 ± 0.021
CUCAGA | 1.965 ± 0.012 | 1.8539 ± 0.00065

Variant | normalized RNA/DNA level with ligand (log10) (hypoxanthine [1]) | normalized RNA/DNA level without ligand (log10) (hypoxanthine [2])
AGAUCA | 1.97 ± 0.049 | 1.81 ± 0.045
CACCUG | 2.01 ± 0.064 | 1.922 ± 0.009
AAAGUC | 1.98 ± 0.07 | 1.919 ± 0.0031
CUUACA | 1.932 ± 0.011 | 1.83 ± 0.062
GAUUCU | 1.97 ± 0.065 | 1.92 ± 0.042
GGGAUU | 1.9914 ± 0.00078 | 1.817 ± 0.014
CACACC | 1.99 ± 0.035 | 1.929 ± 0.0057
GGGGCG | 1.93 ± 0.057 | 1.748 ± 0.0076
GCUCAC | 1.94 ± 0.08 | 1.84 ± 0.053
GGCUGA | 2.01 ± 0.032 | 1.87 ± 0.026
GGCUGU | 1.96 ± 0.025 | 1.95 ± 0.046
CAAUAG | 1.905 ± 0.0064 | 1.69 ± 0.03
CUGCUC | 1.96 ± 0.063 | 2.01 ± 0.0072
UAAACC | 1.955 ± 0.016 | 1.91 ± 0.0052
CGAGAC | 1.93 ± 0.036 | 1.72 ± 0.025
GGCCAG | 1.89 ± 0.026 | 1.67 ± 0.033
UGUGAA | 1.908 ± 0.012 | 1.76 ± 0.025
CGCCGG | 1.913 ± 0.0023 | 1.61 ± 0.065
CAACUC | 1.97 ± 0.028 | 1.96 ± 0.032
CAUUAC | 1.9 ± 0.046 | 1.82 ± 0.0041
